In patent US20250346679A1:

Molecular target: mouse CD137, cell-surface (mouse) (UniProt P20334)
Assay: cell-based or functional assay

Chain of mouse CD137, cell-surface (mouse) (P20334 24-256): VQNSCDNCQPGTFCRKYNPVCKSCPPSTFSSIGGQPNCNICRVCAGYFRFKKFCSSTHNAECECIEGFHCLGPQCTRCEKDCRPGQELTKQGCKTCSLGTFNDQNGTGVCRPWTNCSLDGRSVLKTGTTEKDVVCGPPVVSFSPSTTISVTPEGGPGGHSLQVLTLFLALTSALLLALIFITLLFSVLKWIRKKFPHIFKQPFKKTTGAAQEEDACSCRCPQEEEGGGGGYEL

+XL EC50 (nM), mouse CD137 DO11.10 T cell activation assay: 2.26 nM | +XL Emax (IL-2 pg/ml), mouse CD137 DO11.10 T cell activation assay: 21300 pg/mL | EC50 (nM), mIFN-γ release, OT-1 CD8+ T cell activation assay, with anti-hCH2: 0.36 nM | Emax (pg/ml), mIFN-γ release, OT-1 CD8+ T cell activation assay, with anti-hCH2: 17800 pg/mL
Substance: G1-AA/Lob12.3 (antibody)
